Data published in the domain aggregation screens of Martell et al. (2025).

Test: soluble fraction after stress (log2 fold change); higher = more stays soluble; pooled small domains, quantitative proteomics
Details: stress: pH 4
In short: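 How much of each domain stays soluble after acid stress, expressed as a fold change, is used to gauge aggregation propensity. Pooled custom libraries of small domains underwent pH 4 stress before high-throughput quantitative proteomics. A higher log2 value means more of the domain stayed soluble.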

First: HMHDLTERQREILQTLASGKMALREILSILSQPPSLRTLRDELYHLKRIGLVDTMGYGRGATWFLTQ
Second: HMHDNPLSAQEQRVLDLIAAGKTSKEIASQLFLSDGTVRNYTTSIFNKLNANNRVEAINIAQENGW
The “soluble fraction (log2)” value of the first is lower: -0.13 for the first, 0.123 for the second.

Going from “HMHDPRLPLPGTLLAREFQGRDIVVKVLDNGFEFDGRRYKSLSAIAQEVTGSKWNGFLFFGI” to “HMHDWDITTAAKPEKIFELFSDIPVLETGLKHGTVTLLIDHEPYEVTTFRVDGNYTDGRHPDSVAFT”, the “soluble fraction (log2)” value falls from -0.0393 to -0.366.

Compared with “HMHGESIPIPNILHKRYADAEQIVNNLRLEIEVTDTGYVRSLPPGAILEQTPGPGERVKSGHIIYVTINAA”, “HMHGETLAAKRREEIKVRIQNIYDQSEQIFGYRKITATLRSQGVVVSEKLVSQLMRELEISSVS” is lower in “soluble fraction (log2)” value: -0.0135 for the first, -0.896 for the second.

First: HMHGSSVEIPNIYGLPASEAVQLLDKADLRYEVIDSVYTTEVPKGAVYDLSPKAGSRVKAGRIIFLTLNA
Second: HMHGSTAVVPQIKNMPYSEASVRLGANGLAIEINDSVYDRDMPPGTVIESWPKAGAVVKQGRQVYVTVTA
The “soluble fraction (log2)” value of the first is lower: -0.075 for the first, 0.218 for the second.

“HMHHGALKQALLDETARILAEEGESALSLRRLASNLGVSRTAPYNHFDNKDALLSAVAEEGFRR” and “HMHIELNDTQKRILNFLSDDPNLSAVRLAEQLGISSRNVEKNIKKLKEYGILIRHGSPKNGYWEIVV” are within 0.2 log units of each other in “soluble fraction (log2)” value: -0.0708 for the first, -0.2 for the second.

“HMHITSFTIKQADQIVGTTPVREQAVGAAKARAQQTGTPVSVIAYLDTGEEREVIIHPDGTN” and “HMHKLTSRQEEILQFIKDYLSEIGYPPTRSEIAQKMGFRSTNAAEEHLRALARKGAIEILPGPSRGLRLP” are within 0.2 log units of each other in “soluble fraction (log2)” value: -0.328 for the first, -0.393 for the second.

First: HMHKTEIKIPSREDILAVLRQAQAPLTREQVFEHLKLTEDQIPIIEKRLNAMERDGQLMPNRKGMLLLSTK
Second: HMHKYEYESLNHVNVGSNLKYISTHFGQPKLIKKSKYHENLNFAYYLEKKFILTLILEGDRVNAYTITG
The “soluble fraction (log2)” value of the first is higher: 0.00265 for the first, -0.236 for the second.

“HMHLEKGEVVVPDLKGLTMRQVGELLGKLNLRYSFSGTGLAVKQFPESGQIVNQGDIIEVIF” and “HMHLLPAREQVAAYLRKAILRQEIREGTILNLADTARQMGVSVTPVREALQLLAAQGLVRLRPNKGAVVMG” are within 0.2 log units of each other in “soluble fraction (log2)” value: 0.174 for the first, 0.158 for the second.

First: HMHLNVYRDEDEAMLAFKDHLIGTHQPIRVRVEKALPDGTMGHKIVDTTIGRIVFNHNIPQD
Second: HMHLTEAPLIKITYFEADQKKSGGQYITIINHLKKINEYENLLVLENGVKINIDDIYELESV
The “soluble fraction (log2)” value of the first is higher: 0.0727 for the first, -0.804 for the second.

“HMHMNFGEILQTKRKEKGFTQEELAHQLLVSSKTISNWETNKTTPDIDNVIRISQLFDISLNQLLLE” and “HMHMSKKLADSIISLRRKHGFSQEQLAEKIGVTRQAISNWERGTATPDVETLNLIAKLFDMDLLAIINGE” are within 0.2 log units of each other in “soluble fraction (log2)” value: -0.424 for the first, -0.514 for the second.

Compared with “HMHNLYAPTQKEVDHARRVVEAAEAAAREGLGVVSLNGKMVDGPVIDRARLVLSRAELSGIRE”, “HMHNNTITLNKKTYVYTASGKKMSKYLGYTYINKGTTLNYYGTKNIKGKTFYYIGDHAYVNAANVGKVTN” is higher in “soluble fraction (log2)” value: 0.274 for the first, no less than 0.43 for the second.

First: HMHNQIGDKIRELRTRSNLTQADLGKLVGVSMQAVSKWERGGTPDIDVLLSVAKYFNISLDEMVGRT
Second: HMHPEITLHPVRANIYSISVKNATSMEIYSVSGQLVGIRELKEGTNTLDLTGYINGVYIVNLQNKAFKLVK
The “soluble fraction (log2)” value of the first is lower: -1.63 for the first, -0.465 for the second.

Compared with “HMHPELSDSQRTLIALMASGLKDEAIAVEMGVGARTVRRKVQELYELLGVRTRFQAGVAANQRGW”, “HMHPKDVPTRRELEVLQAVSEGLSTAEIGLRLDITENTVETFRRRLIQKFDAKNAIDLVVKAMAQGWIKV” is higher in “soluble fraction (log2)” value: -0.606 for the first, -0.255 for the second.

Going from “HMHQGTIEVGSIVHIEGQKALGTILSLTQREAIVGLGALKTTIPLKRLHLATEAEARRHKKSVTPQEAV” to “HMHQIFAETVFEDIAFGPRNKGFNEEEVAKQVREAMAFVGLDYDTYAQRSPFQLSGGQMRRVAIAGVVA”, the “soluble fraction (log2)” value falls from 0.284 to -0.874.

Going from “HMHQKYIITGTRDTYVVSQGETLRTIAEHVYGSRGYARYIIEHNHITHPDDIPVGLTIRLPELELNPDYR” to “HMHRAKRTKAQTQSSLESIEGIGPKTRKQLLVHFGGLAEVKAASVSELQKVKGISLDKAQKIYDFFHGS”, the “soluble fraction (log2)” value rises from -0.209 to 0.119.

Compared with “HMHRNLSFEEEKEFLSAYTKQAEAGQIVDLNEMKAAYIEKVGHSIGGSQIYRMLERHGWRKVM”, “HMHSDSEIEKGYTDDGQKLSNVNGVYMTKSEMYNKGIVEKDPNTGEEVMGRNRVNPVTGELE” is higher in “soluble fraction (log2)” value: -0.468 for the first, 0.204 for the second.

Going from “HMHSDWITWWYLKDKRFDDDYSLWDRQPVHPEYFEVVKEFKAPPESNPGGLDEVKRILRTYIPDAFAP” to “HMHSESAAHQRTSVELFARIPETGNLQSAQRHFDVINQFGRFPHRNKILQRPSSEQEEAFLRQPGSG”, the “soluble fraction (log2)” value falls from 0.162 to -0.0644.

Compared with “HMHSILDDIPTVGPARRKALMRRYESLEAIRQATVDELKELPEINEASAEAIVSFFAGQAKEG”, “HMHSRTWTSADGVKTFEGELQSYDAASGKVSVILPNHKRITFKQEKLSADDIAWLEKNGNRP” is higher in “soluble fraction (log2)” value: -1.13 for the first, 0.218 for the second.

Going from “HMHTGLTNYEYKQIKSSLLKILTQSESMRLGELVDKVDQFESEKVTTVIRFLVGNEELMLFDDTLTLKKQL” to “HMHTTIIVASRDIAAGSVLTSHDLSSVAWVGGAVPKGSYTAADLAVGKTAFTAFQQGEPILESRLAS”, the “soluble fraction (log2)” value rises from -0.232 to 0.317.

Compared with “HMHVVVIDKQGALSYQGKAITLLDLKNIVIDVPKETPFLIKADKDIHLQSFVEVLDLIKTAGFKKVSLQ”, “HMIAANMTISQRIAAALAEYGVMSVKDIAQEVLGATDKKDTEKIRVTLTRDHGKRFRTYSDGTWSLKDWRP” is higher in “soluble fraction (log2)” value: -0.459 for the first, 0.234 for the second.

First: HMIAAVIAQVANTNERIILEKRYLSFKSWDEIAVEMRISPRWAYTLHERALKAVDQVLSKQNNE
Second: HMIADDLKSLEGVDQDMLRDLAEAGINTRDDLAELAIDELIEITGVSTEEAEKVIMAARAHWFEEES
The “soluble fraction (log2)” value of the first is lower: -2.54 for the first, -1.74 for the second.

First: HMIAKEDDGTAFLIDGKISSEEEFKTISKDDILEVFVYKETEIAQKKLDSINSINNTYYTSLIEILLKE
Second: HMIAKIEGQISYVGNRFLIVDVSGVGYKLFVTNEAISLSKVEESIKLWVHTAVRENSIDLYG
The “soluble fraction (log2)” value of the first is lower: -0.854 for the first, 0.22 for the second.

Compared with “HMIANDDEIRKVVLEVIEEQPKAVEDVKNGRDRILDFLVGQVMKKTRGKANPSLASNLMKEEIEK”, “HMIANNFDEFVEKVSEAERKALNMPAGQEMTQKLLEMKLAANPNLTPEEWQRTKSEFMTFLFAVFVRE” is lower in “soluble fraction (log2)” value: -0.11 for the first, -1.02 for the second.

“HMIAVLEEGSHFRAVNDVTGKPFGPEMVIKNGQVTAVGKTISTKPKNLLGKKEGTKFVISGKQYVIKDI” and “HMIDAHTALLAKRLEAKGMLPLTDKSSAEEIYAEFGISKKAFKKALGALYKERLVRIGEDGVVWI” are within 0.2 log units of each other in “soluble fraction (log2)” value: -0.103 for the first, 0.0608 for the second.

“HMIDFIGLEAKLLSTISGEKMGNAEVIVDGNVMNIYVKSLDTSEIKFRENVLIIKQSDDKNYYLVAKP” and “HMIDIDTILKKYKPGRRDELIPLMQEIQEVYGHLSEEAVVKIGTYVGLSTTKIYGLATFYDQFRF” are within 0.2 log units of each other in “soluble fraction (log2)” value: -1.01 for the first, -0.874 for the second.

Going from “HMIDLGKSRTWHSENGRAIEARVINISEEQQTVEMQRVDGLKFELSWNQLSKADQTLLAEAAKKTALVA” to “HMIDLPDIDIDFAKRTGVLEHITHTPARLETGKQHNTGVYFTDIPRGVDGLATMDHKRAEQLGYFKLDML”, the “soluble fraction (log2)” value falls from 0.276 to -0.172.

Compared with “HMIDNKIIRSLRQKRNMTLEELAKKANISVSYLSEIELGKKQPSLETINKLSQALNISREGLI”, “HMIDPHGSLTLDLRPRDARVEIIDSNKTYKPGVRLPMGEYAIAVSRRGYISETKRINIEYGDNRERVAL” is lower in “soluble fraction (log2)” value: 0.22 for the first, -0.00328 for the second.

With “HMIDSDENERIKELIKALISETLKSRGVSPEVISDIKERVDRLHNEELPRFAAELKELISRN” the “soluble fraction (log2)” value was -0.209.
